Reference: patent US20090004190A1 (published 2009)

Experiments:
[1] = molecular target: T1, Amyloid Beta (1-40) from Biosource (UniProt P05067 672-711); assay: plate ELISA, immobilized ligand, dilutions of fusion protein, absorbance at 405 nm
T1 construct: domain: Amyloid Beta (1-40); Immobilized on Maxisorb plates at 5 micrograms per well; also called Abeta; A-beta
Description: (§1) Known RAGE ligands were coated onto the surface of Maxisorb plates at a concentration of 5 micrograms per well. Plates were incubated at 4° C. overnight. Following ligand incubation, plates were aspirated and a blocking buffer of 1% BSA in 50 mM imidizole buffer (pH 7.2) was added to the plates for 1 hour at room temperature. The plates were then aspirated and/or washed with wash buffer (20 mM Imidizole, 150 mM NaCl, 0.05% Tween-20, 5 mM CaCl₂ and 5 mM MgCl₂, pH 7.2). […] The RAGE fusion protein was added at increasing dilutions of the initial sample. The RAGE fusion protein was allowed to incubate with the immobilized ligand at 37° C. for one hour after which the plate was washed and assayed for binding of the RAGE fusion protein. Binding was detected by the addition of an immunodetection complex containing a monoclonal mouse anti-human IgG1 diluted 1:11,000 to a final assay concentration (FAC) of 21 ng/100 μL, a biotinylated goat anti-mouse IgG diluted 1:500, to a FAC of […], and an avidin-linked alkaline phosphatase. […] Binding of the complex to the immobilized RAGE fusion protein was quantified by measuring conversion of PNPP to para-nitrophenol (PNP) which was measured spectrophotometrically at 405 nm.

BSA = molecular target: T2, BSA (UniProt P02769 25-607); assay: plate ELISA, BSA-only coating, detection with anti-human IgG1 complex, absorbance at 405 nm
T2 construct: Negative control coating; also called BSA coating alone; BSA+wash
T2 sequence (P02769 25-607 limits assumed): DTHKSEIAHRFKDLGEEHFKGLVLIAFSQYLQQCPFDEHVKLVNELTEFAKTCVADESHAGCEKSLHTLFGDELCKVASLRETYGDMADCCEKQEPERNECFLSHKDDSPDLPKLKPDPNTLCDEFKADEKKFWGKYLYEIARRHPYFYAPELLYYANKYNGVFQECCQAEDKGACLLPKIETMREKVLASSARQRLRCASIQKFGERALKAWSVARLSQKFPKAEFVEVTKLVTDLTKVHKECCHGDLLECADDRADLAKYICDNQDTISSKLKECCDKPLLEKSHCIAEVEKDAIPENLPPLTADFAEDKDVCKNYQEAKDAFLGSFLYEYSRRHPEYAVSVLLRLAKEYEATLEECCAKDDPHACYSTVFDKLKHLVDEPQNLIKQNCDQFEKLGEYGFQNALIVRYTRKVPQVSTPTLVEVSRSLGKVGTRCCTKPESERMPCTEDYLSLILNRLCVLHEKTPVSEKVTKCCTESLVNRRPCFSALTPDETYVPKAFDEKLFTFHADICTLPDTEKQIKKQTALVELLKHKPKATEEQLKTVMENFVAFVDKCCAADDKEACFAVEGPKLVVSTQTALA
Description: as §1

[2] = molecular target: T1, Amyloid Beta (1-40) from Biosource; assay: plate assay, immobilized ligand (A beta=Amyloid beta 1-40), fusion protein 0 to 360 nM, anti-IgG polyclonal antibody with alkaline phosphatase
Description: The ligands are immobilized on a microtiter plate and incubated in the presence of increasing concentrations of RAGE fusion protein from 0 to 360 nM. The RAGE fusion protein-ligand interaction is detected using a polyclonal antibody conjugated with alkaline phosphatase that is specific for the IgG portion of the fusion chimera. […] HMG1B=Ampoterin, CML=Carboxymethyl Lysine, A beta=Amyloid beta 1-40.

T1 sequence (P05067 672-711 limits assumed): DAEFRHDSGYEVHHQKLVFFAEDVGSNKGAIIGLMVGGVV

B1: RAGE fusion protein TTP-3000 (Fc fusion)
chain: QNITARIGEPLVLKCKGAPKKPPQRLEWKLNTGRTEAWKVLSPQGGGPWDSVARVLPNGSLFLPAVGIQDEGIFRCQAMNRNGKETKSNYRVRVYQIPGKPEIVDSASELTAGPSVFLFPPKPKDTLMISRTPEVTCVVVDVSHEDPEVKFNWYVDGVEVHNAKTKPREEQYNSTYRVVSVLTVLHQDWLNGKEYKCKVSNKALPAPIEKTISKAKGQPREPQVYTLPPSRDELTKNQVSLTCLVKGFYPSDIAVEWESNGQPENNYKTTPPVLDSDGSFFLYSKLTVDKSRWQQGNVFSCSVMHEALHNHYTQKSLSLSPGK
notes: also called TT3; three domain RAGE fusion protein
B1: binds [1]; no binding (BSA).

B2: RAGE fusion protein TTP-4000 (Fc fusion)
chain: QNITARIGEPLVLKCKGAPKKPPQRLEWKLNTGRTEAWKVLSPQGGGPWDSVARVLPNGSLFLPAVGIQDEGIFRCQAMNRNGKETKSNYRVRVYQIPGKPEIVDSASELTAGVPNKVGTCVSEGSYPAGTLSWHLDGKPLVPNEKGVSVKEQTRRHPETGLFTLQSELMVTPARGGDPRPTFSCSFSPGLPRHRALRTAPIQPRVWEPVPLEEVQLVVEPEGGAVAPPSVFLFPPKPKDTLMISRTPEVTCVVVDVSHEDPEVKFNWYVDGVEVHNAKTKPREEQYNSTYRVVSVLTVLHQDWLNGKEYKCKVSNKALPAPIEKTISKAKGQPREPQVYTLPPSRDELTKNQVSLTCLVKGFYPSDIAVEWESNGQPENNYKTTPPVLDSDGSFFLYSKLTVDKSRWQQGNVFSCSVMHEALHNHYTQKSLSLSPGK
modifications: N-terminal residue glutamine (Q) or pyroglutamic acid (pE) or a mixture thereof; glycosylation sites at N2 and N288 (numbering of SEQ ID NO: 34 or 56); C-terminal residue of CH3 may be cleaved off
notes: No immunoglobulin hinge; Made in CHO cells, purified on Protein A; also called TT4; four domain RAGE fusion protein
B2: no binding (BSA); binds [2].
